# Laboratory results: patent US20220220215A1 (CRESCENDO BIOLOGICS, published 2022)
# Positions count from the first letter of the chain named. Names may count otherwise.
# B1: TPP-983: CD137A -6GS-HSA2-6GS-PDA2-His (bispecific antibody)
# chain: EVQLVESGGGLVQPGGSLRLSCAASGFTLSNYWMNWVRQAPGKGLEWVANINQDGSERYYVDSVKGRFTISRDNAKNSLYLQMNSLRAEDTAVYYCARGGEGYGVDHYGLDVSGQGTTVTVSSGGGGSGGGGSGGGGSGGGGSGGGGSGGGGSEVQLVESGGGLVKPGGSLRLSCAASGFTFSNYNMNWVRQAPGKGLEWVSSISSAGTHIYYADSVKGRFTISRDNAKNSLYLQMNSLRAEDTAVYYCARDPHSTGWYKDFDYWGQGTLVTVSSGGGGSGGGGSGGGGSGGGGSGGGGSGGGGSEVQLVESGGGVVRPGGSLRLSCAASGFTFDDYAMSWVRQAPGKGLEWVSGITWNAGSTGYADSVKGRFTISRDNAKNSLYLQMNSLRAEDTALYYCVRDKYSYAWSYDDFDIWGQGTMVTVSSAAAHHHHHH
# notes: Single-chain VH fusion (CD137 VH, HSA VH, PD-1 VH), His tag
# B2: TPP-971: PDA2-6GS-HSA2-6GS-172E1-13-His (bispecific antibody)
# chain: EVQLVESGGGVVRPGGSLRLSCAASGFTFDDYAMSWVRQAPGKGLEWVSGITWNAGSTGYADSVKGRFTISRDNAKNSLYLQMNSLRAEDTALYYCVRDKYSYAWSYDDFDIWGQGTMVTVSSGGGGSGGGGSGGGGSGGGGSGGGGSGGGGSEVQLVESGGGLVKPGGSLRLSCAASGFTFSNYNMNWVRQAPGKGLEWVSSISSAGTHIYYADSVKGRFTISRDNAKNSLYLQMNSLRAEDTAVYYCARDPHSTGWYKDFDYWGQGTLVTVSSGGGGSGGGGSGGGGSGGGGSGGGGSGGGGSEVQLVESGGGVVQPGGSLRLSCAASGFTFSNYGMHWVRQAPGKGLEWVAVISNDGNTKTYADSVKGRFTISRDNSKNTLYLQMNSLRAEDTAVYYCAQDETTTVTASYYFDYWGQGTLVTVSSAAAHHHHHH
# notes: Single-chain VH fusion (PD-1 VH, HSA VH, CD137 VH), His tag
# B3: TPP-984: CD137D -6GS-HSA2-6GS-PDA-His (bispecific antibody)
# chain: EVQLVESGGGVVQPGGSLRLSCAASGFTFSNYGMHWVRQAPGKGLEWVAVISNDGNTKTYADSVKGRFTISRDNSKNTLYLQMNSLRAEDTAVYYCAQDETTTVTASYYFDYWGQGTLVTVSSGGGGSGGGGSGGGGSGGGGSGGGGSGGGGSEVQLVESGGGLVKPGGSLRLSCAASGFTFSNYNMNWVRQAPGKGLEWVSSISSAGTHIYYADSVKGRFTISRDNAKNSLYLQMNSLRAEDTAVYYCARDPHSTGWYKDFDYWGQGTLVTVSSGGGGSGGGGSGGGGSGGGGSGGGGSGGGGSEVQLVESGGGLVQPGRSLRLSCAASGFTFDDYALHWVRQAPGKDLEWVSGISWNGGSYGYADSVKGRFTISRDNAKNSLYLQMNSLRAEDTALYYCVREKGPGLTGSTADYYGLDAWGQGTMVTVSSAAAHHHHHH
# notes: as for B1
# B4: TPP-975: CD137D-6GS-PDA2-6GS-HSA2-His (bispecific antibody)
# chain: EVQLVESGGGVVQPGGSLRLSCAASGFTFSNYGMHWVRQAPGKGLEWVAVISNDGNTKTYADSVKGRFTISRDNSKNTLYLQMNSLRAEDTAVYYCAQDETTTVTASYYFDYWGQGTLVTVSSGGGGSGGGGSGGGGSGGGGSGGGGSGGGGSEVQLVESGGGVVRPGGSLRLSCAASGFTFDDYAMSWVRQAPGKGLEWVSGITWNAGSTGYADSVKGRFTISRDNAKNSLYLQMNSLRAEDTALYYCVRDKYSYAWSYDDFDIWGQGTMVTVSSGGGGSGGGGSGGGGSGGGGSGGGGSGGGGSEVQLVESGGGLVKPGGSLRLSCAASGFTFSNYNMNWVRQAPGKGLEWVSSISSAGTHIYYADSVKGRFTISRDNAKNSLYLQMNSLRAEDTAVYYCARDPHSTGWYKDFDYWGQGTLVTVSSAAAHHHHHH
# notes: Single-chain VH fusion (CD137 VH, PD-1 VH, HSA VH), His tag
# B5: TPP-982: CD137A -6GS-HSA2-6GS-PDA-His (bispecific antibody)
# chain: EVQLVESGGGLVQPGGSLRLSCAASGFTLSNYWMNWVRQAPGKGLEWVANINQDGSERYYVDSVKGRFTISRDNAKNSLYLQMNSLRAEDTAVYYCARGGEGYGVDHYGLDVSGQGTTVTVSSGGGGSGGGGSGGGGSGGGGSGGGGSGGGGSEVQLVESGGGLVKPGGSLRLSCAASGFTFSNYNMNWVRQAPGKGLEWVSSISSAGTHIYYADSVKGRFTISRDNAKNSLYLQMNSLRAEDTAVYYCARDPHSTGWYKDFDYWGQGTLVTVSSGGGGSGGGGSGGGGSGGGGSGGGGSGGGGSEVQLVESGGGLVQPGRSLRLSCAASGFTFDDYALHWVRQAPGKDLEWVSGISWNGGSYGYADSVKGRFTISRDNAKNSLYLQMNSLRAEDTALYYCVREKGPGLTGSTADYYGLDAWGQGTMVTVSSAAAHHHHHH
# notes: as for B1
# B6: TPP-985: CD137D -6GS-HSA2-2-6GS-PDA2-His (bispecific antibody)
# chain: EVQLVESGGGVVQPGGSLRLSCAASGFTFSNYGMHWVRQAPGKGLEWVAVISNDGNTKTYADSVKGRFTISRDNSKNTLYLQMNSLRAEDTAVYYCAQDETTTVTASYYFDYWGQGTLVTVSSGGGGSGGGGSGGGGSGGGGSGGGGSGGGGSEVQLVESGGGLVKPGGSLRLSCAASGFTFSNYNMNWVRQAPGKGLEWVSSISSAGTHIYYADSVKGRFTISRDNAKNSLYLQMNSLRAEDTAVYYCARDPHSTGWYKDFDYWGQGTLVTVSSGGGGSGGGGSGGGGSGGGGSGGGGSGGGGSEVQLVESGGGVVRPGGSLRLSCAASGFTFDDYAMSWVRQAPGKGLEWVSGITWNAGSTGYADSVKGRFTISRDNAKNSLYLQMNSLRAEDTALYYCVRDKYSYAWSYDDFDIWGQGTMVTVSSAAAHHHHHH
# notes: as for B1
# B7: TPP-950: PDA2-6GS-172E1-13-6GS-HSA2-His (bispecific antibody)
# chain: EVQLVESGGGVVRPGGSLRLSCAASGFTFDDYAMSWVRQAPGKGLEWVSGITWNAGSTGYADSVKGRFTISRDNAKNSLYLQMNSLRAEDTALYYCVRDKYSYAWSYDDFDIWGQGTMVTVSSGGGGSGGGGSGGGGSGGGGSGGGGSGGGGSEVQLVESGGGVVQPGGSLRLSCAASGFTFSNYGMHWVRQAPGKGLEWVAVISNDGNTKTYADSVKGRFTISRDNSKNTLYLQMNSLRAEDTAVYYCAQDETTTVTASYYFDYWGQGTLVTVSSGGGGSGGGGSGGGGSGGGGSGGGGSGGGGSEVQLVESGGGLVKPGGSLRLSCAASGFTFSNYNMNWVRQAPGKGLEWVSSISSAGTHIYYADSVKGRFTISRDNAKNSLYLQMNSLRAEDTAVYYCARDPHSTGWYKDFDYWGQGTLVTVSSAAAHHHHHH
# notes: Single-chain VH fusion (PD-1 VH, CD137 VH, HSA VH), His tag
# B8: TPP-957; PD138G7(G109D)-6GS-172E1-13-6GS-HSA2-His (bispecific antibody)
# chain: B7 chain with A55G, G66D
# notes: as for B7
# B9: TPP-951: PDA2-6GS-172E1-13-6GS-HSA3-His (bispecific antibody)
# chain: EVQLVESGGGVVRPGGSLRLSCAASGFTFDDYAMSWVRQAPGKGLEWVSGITWNAGSTGYADSVKGRFTISRDNAKNSLYLQMNSLRAEDTALYYCVRDKYSYAWSYDDFDIWGQGTMVTVSSGGGGSGGGGSGGGGSGGGGSGGGGSGGGGSEVQLVESGGGVVQPGGSLRLSCAASGFTFSNYGMHWVRQAPGKGLEWVAVISNDGNTKTYADSVKGRFTISRDNSKNTLYLQMNSLRAEDTAVYYCAQDETTTVTASYYFDYWGQGTLVTVSSGGGGSGGGGSGGGGSGGGGSGGGGSGGGGSEVQLLESGGGLVKPGGSLRLSCAASGFTVSSYTMNWVRQAPGKGLEWVSSISSSGRYIYYADSVKGRFTISRDNAKNSLYLQMNSLRAEDTAVYYCARDPRMVGNPHEFDIWGQGTMVTVSSAAAHHHHHH
# notes: as for B7
# B10: TPP-958: PD138G7(G109D)-6GS-172E1-13-6GS-HSA3-His (bispecific antibody)
# chain: B9 chain with A55G, G66D
# notes: as for B7
# Target: T1, human CD137 expressed on CHO cells (human, UniProt Q07011 18-255)
# T1 construct: also called CHO huCD137; CHO human CD137 cells
# Assay: FMAT/Mirrorball on CHO huCD137 cells
# Protocol: (§1) Binding of His-tagged molecules to CHO human CD137, CHO parent and CHO human PD1 cells was assessed using Fluorescence Microvolume Assay Technology (FMAT). All reagents were prepared in FMAT assay buffer (pH 7.4) containing PBS, 0.1% Bovine Serum Albumin, 0.05% Sodium Azide. […] Fluorescence emission was then measured on the TTP Mirrorball plate reader in the FL2 (502 nm-537 nm) and FL5 (677-800 nm) channels following excitation at 488 nm and 640 nm. Data was gated on FL5 perimeter and peak intensity and the FL2 median mean fluorescence intensity of the gated data used for determination of VH binding. Monovalent CD137 specific Humabody® VH, and trispecific molecules with a CD137 binding arm bound to CHO CD137 expressing cells. Trispecific Humabody® VH, with a PD1 binding arm bound to PD1 expressing cells.
row,EC50,Binder
1,0.0443 nM,B1
2,0.223 nM,B2
3,0.314 nM,B3
4,0.39 nM,B4
5,0.0896 nM,B5
6,0.382 nM,B6
7,0.735 nM,B7
8,1.17 nM,B8
9,0.419 nM,B9
10,0.499 nM,B10

# Target: T2, human PD-1 expressed on CHO cells (human, UniProt Q15116 21-288)
# T2 construct: also called CHO huPD1; CHO human PD1 cells
# Assay: FMAT/Mirrorball on CHO huPD1 cells
# Protocol: as §1
row,EC50,Binder
1,0.24 nM,B1
2,0.414 nM,B2
3,0.264 nM,B3
4,0.792 nM,B4
5,0.332 nM,B5
6,0.541 nM,B6
7,0.844 nM,B7
8,0.766 nM,B8
9,0.805 nM,B9
10,0.346 nM,B10
